What was measured:
Format in all cases: binding
[1] = molecular target: T1, pig kidney FBPase K112A (Sus scrofa, UniProt P00636, K113A); experiment: Differential scanning fluorimetry, K112A mutant; conditions: no ligand
T1 construct: His6 (C); made in house; host or cells: Escherichia coli BL21 (DE3)
T1 sequence (P00636 1-338 K113A): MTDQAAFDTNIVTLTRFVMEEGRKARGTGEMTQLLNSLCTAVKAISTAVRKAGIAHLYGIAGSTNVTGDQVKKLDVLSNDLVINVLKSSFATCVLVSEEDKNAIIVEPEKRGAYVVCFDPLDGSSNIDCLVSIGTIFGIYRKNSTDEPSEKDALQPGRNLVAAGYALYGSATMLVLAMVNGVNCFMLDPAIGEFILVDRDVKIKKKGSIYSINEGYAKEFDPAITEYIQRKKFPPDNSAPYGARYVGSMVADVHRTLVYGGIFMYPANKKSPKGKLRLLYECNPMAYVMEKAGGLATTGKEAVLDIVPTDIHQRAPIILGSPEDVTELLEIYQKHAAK
Method: (§1) Differential scanning fluorimetry (DSF) assays were designed and implemented to run on WT and each mutant for the purpose of determining relative stabilities by melting point, and to detect structural changes in the enzymes upon ligand binding. Thermal shift assays were performed with a Light Cycler 96 System Real-Time PCR machine (Roche) using Sypro-Orange dye (Invitrogen) and thermal ramping (0.25°C per min between 20 and 85°C). […] Data were processed using the Boltzmann equation to generate sigmoidal denaturation curves, and average Tm/ΔTm values were calculated as previously described using GraphPad Prism software package.

[2] = molecular target: T2, pig kidney FBPase Y113A (Sus scrofa, UniProt P00636, Y114A); experiment: Differential scanning fluorimetry, Y113A mutant; conditions: no ligand
T2 construct: His6 (C); made in house; host or cells: Escherichia coli BL21 (DE3)
T2 sequence (P00636 1-338 Y114A): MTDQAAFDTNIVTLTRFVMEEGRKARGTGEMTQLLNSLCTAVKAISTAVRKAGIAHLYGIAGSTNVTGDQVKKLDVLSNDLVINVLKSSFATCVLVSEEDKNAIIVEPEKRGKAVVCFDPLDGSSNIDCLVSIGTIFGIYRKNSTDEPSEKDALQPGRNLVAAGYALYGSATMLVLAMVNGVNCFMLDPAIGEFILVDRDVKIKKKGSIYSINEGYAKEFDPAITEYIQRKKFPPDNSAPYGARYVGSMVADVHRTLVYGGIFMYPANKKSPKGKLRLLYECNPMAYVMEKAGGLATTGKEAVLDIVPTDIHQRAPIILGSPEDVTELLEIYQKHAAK
Method: as §1

[3] = molecular target: T3, pig kidney FBPase Y164A (Sus scrofa, UniProt P00636, Y165A); experiment: Differential scanning fluorimetry, Y164A mutant; conditions: enzyme Y164A 5 µM, no ligand
T3 construct: His6 (C); made in house; host or cells: Escherichia coli BL21 (DE3)
T3 sequence (P00636 1-338 Y165A): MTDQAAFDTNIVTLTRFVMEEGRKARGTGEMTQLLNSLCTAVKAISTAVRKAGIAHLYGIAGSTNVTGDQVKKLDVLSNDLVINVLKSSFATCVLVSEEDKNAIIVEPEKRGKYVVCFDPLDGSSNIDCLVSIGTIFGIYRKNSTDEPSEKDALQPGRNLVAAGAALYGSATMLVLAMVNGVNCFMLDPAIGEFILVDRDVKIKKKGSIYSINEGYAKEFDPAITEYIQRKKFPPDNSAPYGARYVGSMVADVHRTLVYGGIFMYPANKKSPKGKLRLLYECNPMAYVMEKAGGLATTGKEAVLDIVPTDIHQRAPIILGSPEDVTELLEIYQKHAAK
Method: as §1

[4] = molecular target: T4, pig kidney FBPase M177A (Sus scrofa, UniProt P00636, M178A); experiment: Differential scanning fluorimetry, M177A mutant; conditions: enzyme M177A 5 µM, no ligand
T4 construct: His6 (C); made in house; host or cells: Escherichia coli BL21 (DE3)
T4 sequence (P00636 1-338 M178A): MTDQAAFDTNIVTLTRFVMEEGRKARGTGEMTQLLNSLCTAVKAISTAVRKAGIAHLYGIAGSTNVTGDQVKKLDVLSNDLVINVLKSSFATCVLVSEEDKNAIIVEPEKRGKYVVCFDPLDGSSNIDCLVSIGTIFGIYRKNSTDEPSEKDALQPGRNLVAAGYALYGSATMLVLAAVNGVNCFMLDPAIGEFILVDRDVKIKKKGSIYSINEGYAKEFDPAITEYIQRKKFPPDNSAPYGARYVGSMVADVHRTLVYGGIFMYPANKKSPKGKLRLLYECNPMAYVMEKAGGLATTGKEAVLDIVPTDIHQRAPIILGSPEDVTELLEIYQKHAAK
Method: as §1

[5] = molecular target: T5, pig kidney FBPase M248D (Sus scrofa, UniProt P00636, M249D); experiment: Differential scanning fluorimetry, M248D mutant; conditions: enzyme M248D 5 µM, no ligand
T5 construct: His6 (C); made in house; host or cells: Escherichia coli BL21 (DE3)
T5 sequence (P00636 1-338 M249D): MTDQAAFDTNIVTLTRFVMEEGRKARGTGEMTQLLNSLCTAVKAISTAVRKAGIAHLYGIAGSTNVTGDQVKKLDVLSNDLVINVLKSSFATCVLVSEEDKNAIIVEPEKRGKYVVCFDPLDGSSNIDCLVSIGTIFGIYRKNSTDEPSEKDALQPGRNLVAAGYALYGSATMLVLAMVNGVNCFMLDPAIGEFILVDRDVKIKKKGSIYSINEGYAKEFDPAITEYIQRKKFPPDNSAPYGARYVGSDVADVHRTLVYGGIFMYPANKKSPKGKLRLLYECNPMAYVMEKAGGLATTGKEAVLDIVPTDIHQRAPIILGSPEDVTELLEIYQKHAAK
Method: as §1

[6] = molecular target: T6, pig kidney FBPase WT (Sus scrofa, UniProt P00636); experiment: Differential scanning fluorimetry, WT enzyme; conditions: enzyme WT 5 µM, no ligand
T6 construct: His6 (C); made in house; host or cells: Escherichia coli BL21 (DE3)
T6 sequence (P00636 1-338): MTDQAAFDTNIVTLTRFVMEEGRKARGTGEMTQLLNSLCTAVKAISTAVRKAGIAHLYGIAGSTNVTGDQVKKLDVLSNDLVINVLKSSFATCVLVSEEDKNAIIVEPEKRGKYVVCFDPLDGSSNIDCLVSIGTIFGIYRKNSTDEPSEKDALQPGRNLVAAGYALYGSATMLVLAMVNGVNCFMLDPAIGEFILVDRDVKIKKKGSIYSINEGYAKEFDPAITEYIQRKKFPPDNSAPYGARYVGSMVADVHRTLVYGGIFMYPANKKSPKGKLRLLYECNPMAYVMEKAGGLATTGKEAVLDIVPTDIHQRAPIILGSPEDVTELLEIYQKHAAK
Method: as §1

[7] = molecular target: T7, pig kidney FBPase L73A (Sus scrofa, UniProt P00636, L74A); experiment: Differential scanning fluorimetry, L73A mutant; conditions: enzyme L73A 5 µM, no ligand
T7 construct: His6 (C); made in house; host or cells: Escherichia coli BL21 (DE3)
T7 sequence (P00636 1-338 L74A): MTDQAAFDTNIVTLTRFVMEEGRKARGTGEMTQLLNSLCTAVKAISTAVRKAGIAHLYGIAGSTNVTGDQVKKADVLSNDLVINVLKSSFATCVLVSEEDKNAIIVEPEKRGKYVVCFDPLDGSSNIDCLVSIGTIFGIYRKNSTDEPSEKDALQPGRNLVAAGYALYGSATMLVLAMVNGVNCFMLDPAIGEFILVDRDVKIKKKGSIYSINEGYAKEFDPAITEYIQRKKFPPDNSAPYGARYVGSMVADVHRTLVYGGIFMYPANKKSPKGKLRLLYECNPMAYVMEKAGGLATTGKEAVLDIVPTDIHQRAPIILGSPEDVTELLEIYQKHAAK
Method: as §1

B1: K112A: pig kidney FBPase mutant, lysine to alanine, AMP-binding site (protein, UniProt P00636 2-338, looked up, variant K112A)
Fructose-1,6-bisphosphatase 1: TDQAAFDTNIVTLTRFVMEEGRKARGTGEMTQLLNSLCTAVKAISTAVRKAGIAHLYGIAGSTNVTGDQVKKLDVLSNDLVINVLKSSFATCVLVSEEDKNAIIVEPEKRGAYVVCFDPLDGSSNIDCLVSIGTIFGIYRKNSTDEPSEKDALQPGRNLVAAGYALYGSATMLVLAMVNGVNCFMLDPAIGEFILVDRDVKIKKKGSIYSINEGYAKEFDPAITEYIQRKKFPPDNSAPYGARYVGSMVADVHRTLVYGGIFMYPANKKSPKGKLRLLYECNPMAYVMEKAGGLATTGKEAVLDIVPTDIHQRAPIILGSPEDVTELLEIYQKHAAK
melting point, No Ligand ([1]; enzyme K112A 5 µM): 51.0 (± 2.50) °C | decrease in melting temperature compared with WT ([1]; enzyme K112A): approximately 6 °

B2: Y113A: pig kidney FBPase mutant, tyrosine to alanine, AMP-binding site (protein, UniProt P00636 2-338, looked up, variant Y113A)
Fructose-1,6-bisphosphatase 1: TDQAAFDTNIVTLTRFVMEEGRKARGTGEMTQLLNSLCTAVKAISTAVRKAGIAHLYGIAGSTNVTGDQVKKLDVLSNDLVINVLKSSFATCVLVSEEDKNAIIVEPEKRGKAVVCFDPLDGSSNIDCLVSIGTIFGIYRKNSTDEPSEKDALQPGRNLVAAGYALYGSATMLVLAMVNGVNCFMLDPAIGEFILVDRDVKIKKKGSIYSINEGYAKEFDPAITEYIQRKKFPPDNSAPYGARYVGSMVADVHRTLVYGGIFMYPANKKSPKGKLRLLYECNPMAYVMEKAGGLATTGKEAVLDIVPTDIHQRAPIILGSPEDVTELLEIYQKHAAK
melting point, No Ligand ([2]; enzyme Y113A 5 µM): 50.0 (± 2.25) °C | decrease in melting temperature compared with WT ([2]; enzyme Y113A): approximately 6 °

B3: Y164A: pig kidney FBPase mutant, tyrosine to alanine, interfacial (protein, UniProt P00636 2-338, looked up, variant Y164A)
Fructose-1,6-bisphosphatase 1: TDQAAFDTNIVTLTRFVMEEGRKARGTGEMTQLLNSLCTAVKAISTAVRKAGIAHLYGIAGSTNVTGDQVKKLDVLSNDLVINVLKSSFATCVLVSEEDKNAIIVEPEKRGKYVVCFDPLDGSSNIDCLVSIGTIFGIYRKNSTDEPSEKDALQPGRNLVAAGAALYGSATMLVLAMVNGVNCFMLDPAIGEFILVDRDVKIKKKGSIYSINEGYAKEFDPAITEYIQRKKFPPDNSAPYGARYVGSMVADVHRTLVYGGIFMYPANKKSPKGKLRLLYECNPMAYVMEKAGGLATTGKEAVLDIVPTDIHQRAPIILGSPEDVTELLEIYQKHAAK
melting point, No Ligand [3]: 55.4 (± 2.25) °C

B4: M177A: pig kidney FBPase mutant, methionine to alanine, interfacial (protein, UniProt P00636 2-338, looked up, variant M177A)
Fructose-1,6-bisphosphatase 1: TDQAAFDTNIVTLTRFVMEEGRKARGTGEMTQLLNSLCTAVKAISTAVRKAGIAHLYGIAGSTNVTGDQVKKLDVLSNDLVINVLKSSFATCVLVSEEDKNAIIVEPEKRGKYVVCFDPLDGSSNIDCLVSIGTIFGIYRKNSTDEPSEKDALQPGRNLVAAGYALYGSATMLVLAAVNGVNCFMLDPAIGEFILVDRDVKIKKKGSIYSINEGYAKEFDPAITEYIQRKKFPPDNSAPYGARYVGSMVADVHRTLVYGGIFMYPANKKSPKGKLRLLYECNPMAYVMEKAGGLATTGKEAVLDIVPTDIHQRAPIILGSPEDVTELLEIYQKHAAK
melting point, No Ligand [4]: 54.2 (± 1.75) °C

B5: M248D: pig kidney FBPase active site mutant Met^248 to aspartic acid (protein, UniProt P00636 2-338, looked up, variant M248D)
Fructose-1,6-bisphosphatase 1: TDQAAFDTNIVTLTRFVMEEGRKARGTGEMTQLLNSLCTAVKAISTAVRKAGIAHLYGIAGSTNVTGDQVKKLDVLSNDLVINVLKSSFATCVLVSEEDKNAIIVEPEKRGKYVVCFDPLDGSSNIDCLVSIGTIFGIYRKNSTDEPSEKDALQPGRNLVAAGYALYGSATMLVLAMVNGVNCFMLDPAIGEFILVDRDVKIKKKGSIYSINEGYAKEFDPAITEYIQRKKFPPDNSAPYGARYVGSDVADVHRTLVYGGIFMYPANKKSPKGKLRLLYECNPMAYVMEKAGGLATTGKEAVLDIVPTDIHQRAPIILGSPEDVTELLEIYQKHAAK
melting point, No Ligand [5]: 62.0 (± 1.25) °C

B6: WT: recombinant wild-type pig kidney FBPase enzyme (protein, UniProt P00636 2-338, looked up)
Fructose-1,6-bisphosphatase 1: TDQAAFDTNIVTLTRFVMEEGRKARGTGEMTQLLNSLCTAVKAISTAVRKAGIAHLYGIAGSTNVTGDQVKKLDVLSNDLVINVLKSSFATCVLVSEEDKNAIIVEPEKRGKYVVCFDPLDGSSNIDCLVSIGTIFGIYRKNSTDEPSEKDALQPGRNLVAAGYALYGSATMLVLAMVNGVNCFMLDPAIGEFILVDRDVKIKKKGSIYSINEGYAKEFDPAITEYIQRKKFPPDNSAPYGARYVGSMVADVHRTLVYGGIFMYPANKKSPKGKLRLLYECNPMAYVMEKAGGLATTGKEAVLDIVPTDIHQRAPIILGSPEDVTELLEIYQKHAAK
melting point, No Ligand [6]: 56.0 (± 2.75) °C

B7: L73A: pig kidney FBPase mutant Leu^73 to alanine, near PFE tetramer interface site (protein, UniProt P00636 2-338, looked up, variant L73A)
Fructose-1,6-bisphosphatase 1: TDQAAFDTNIVTLTRFVMEEGRKARGTGEMTQLLNSLCTAVKAISTAVRKAGIAHLYGIAGSTNVTGDQVKKADVLSNDLVINVLKSSFATCVLVSEEDKNAIIVEPEKRGKYVVCFDPLDGSSNIDCLVSIGTIFGIYRKNSTDEPSEKDALQPGRNLVAAGYALYGSATMLVLAMVNGVNCFMLDPAIGEFILVDRDVKIKKKGSIYSINEGYAKEFDPAITEYIQRKKFPPDNSAPYGARYVGSMVADVHRTLVYGGIFMYPANKKSPKGKLRLLYECNPMAYVMEKAGGLATTGKEAVLDIVPTDIHQRAPIILGSPEDVTELLEIYQKHAAK
melting point, No Ligand [7]: 55.8 (± 2.50) °C

Source: article PMC6386767, “Characterization of recombinant fructose-1,6-bisphosphatase gene mutations: evidence of inhibition/activation of FBPase protein by gene mutation” (Bioscience Reports, 2019)
